According to article PMC11485400 (Alzheimer's & Dementia, 2024):
Where two headings read alike, the source gives them in different places.

B1: caveolin-1 (Cav-1) (natural protein)
chain: MSGGKYVDSEGHLYTVPIREQGNIYKPNNKAMADELSEKQVYDAHTKEIDLVNRDPKHLNDDVVKIDFEDVIAEPEGTHSFDGIWKASFTTFTVTKYWFYRLLSALFGIPMALIWGIYFAILSFLHIWAVVPCIKSFLIEIQCISRVYSIYVHTVCDPLFEAVGKIFSNVRINLQKEI
B2: human recombinant PrP^C 23-230 (domain or fragment)
chain: not shown

Experiments:
Assay in all cases: SPR
[1] = target: T1, synthetic human Aβ1-42, oligomerised (human, UniProt P05067)
[2] = target: T2, synthetic human Aβ1-40, oligomerised (human, UniProt P05067)
[3] = target: B2
[4] = target: T1, synthetic human Aβ1-42, oligomerised; remark: listed apart in the source
[5] = target: T2, synthetic human Aβ1-40, oligomerised; remark: listed apart in the source

Binder | Kd [1] [nM] | Kd [2] [nM] | Kd [3] [nM] | Kd [4] [nM] | Kd [5] [nM]
B1 | 13 | 11.4 | 14.1 |  | 
B2 |  |  |  | 11.3 | 28.8
